The record followed here is patent publication US20240252732A1 (IMMUNICOM, published 2024).

For assay [1], the target named is T1, soluble TNF receptor 1 (sTNF-R1) (human, UniProt P19438 30-211).
T1 construct: extracellular domain
T1 sequence (looked up): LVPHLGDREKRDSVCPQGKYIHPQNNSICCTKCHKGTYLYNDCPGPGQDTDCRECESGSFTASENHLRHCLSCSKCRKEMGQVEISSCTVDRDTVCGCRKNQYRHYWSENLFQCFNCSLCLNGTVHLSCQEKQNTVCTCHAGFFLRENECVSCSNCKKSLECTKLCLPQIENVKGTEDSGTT
The assay can be described thus: equilibrium KD; method not stated.

Assay [2] concerns the target T2, soluble TNF receptor 2 (sTNF-R2) (human, UniProt P20333 23-257).
T2 construct: extracellular domain
T2 sequence (looked up): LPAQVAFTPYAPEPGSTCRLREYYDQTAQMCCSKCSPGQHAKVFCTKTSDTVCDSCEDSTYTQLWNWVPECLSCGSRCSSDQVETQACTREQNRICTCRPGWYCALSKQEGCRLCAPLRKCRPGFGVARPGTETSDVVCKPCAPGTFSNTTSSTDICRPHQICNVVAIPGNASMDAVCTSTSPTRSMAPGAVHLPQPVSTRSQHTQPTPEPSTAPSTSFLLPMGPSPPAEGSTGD
The assay can be described thus: equilibrium KD; method not stated.

B1: SEQ11 modified single chain TNF (scTNF) (ligand)
chain: THHHHHHHHHHAGGAENLYFQGSASSSSRTPSDKPVAHVVANPQAEGQLQWVNRRANALLANGVELRDNQLVVPSEGLYLIYSQVLFKGQGCPSTHVLLTHTISRIAVSYQTKVNLLSAIKSPCQRETPEGAEAKPWYEPIYLGGVFQLEKGDRLSAEINRPDYLDFDDDGQVYFGIIALGGGSGGGSGGGSGGGSSSRTPSDKPVAHVVANPQAEGQLQWVNRRANALLANGVELRDNQLVVPSEGLYLIYSQVLFKGQGCPSTHVLLTHTISRIAVSYQTKVNLLSAIKSPCQRETPEGAEAKPWYEPIYLGGVFQLEKGDRLSAEINRPDYLDFDDDGQVYFGIIALGGGSGGGSGGGSGGGSSSRTPSDKPVAHVVANPQAEGQLQWVNRRANALLANGVELRDNQLVVPSEGLYLIYSQVLFKGQGCPSTHVLLTHTISRIAVSYQTKVNLLSAIKSPCQRETPEGAEAKPWYEPIYLGGVFQLEKGDRLSAEINRPDYLDFDDDGQVYFGIIAL
notes: also called TNF variant trimer
In the case of B1, the equilibrium dissociation constant (Kd) (as a rule, the free concentration of one partner at which half of the binding sites on the other are occupied at equilibrium, for simple one-to-one binding) in assay [1] was 100 nM; in assay [2] it was 12 nM.
